Where a chain is given by its changes, count along the chain named.
B1: C1_IPN009VH2-SG4GK/IPN93L0028-SK1 (antibody, human IgG4 S228P, kappa, name in Kabat numbering, V domains shown)
VH: EVMLVESGGGLVKPGGSLRLSCAASGFTFSNYAMSWVRQAPGKGLEWVATISSGGSHTYYLDSVKGRFTISRDNSKDTLYLQMNSLRAEDTALYYCARLFTGYAMDYWGQGTLVTVSS
VL: QIVLTQSPATLSLSPGERATLSCTASSSVSSSYLHWYQQKPGKAPKLWIYSTSNLASGVPSRFSGSGSGTDYTLTISSLQPEDFATYYCHQYHRHPPITFGQGTKLEIKR
notes: also called IPN009VH2/IPN93L0028
B2: C1_IPN009VH2-SG4GK/IPN93L0029-SK1 (antibody, human IgG4 S228P, kappa, name in Kabat numbering, V domains shown)
VH: B1 VH
VL: B1 VL with H95L, P96H
notes: also called IPN009VH2/IPN93L0029
B3: C1_IPN009VH2-SG4GK/IPN93L0030-SK1 (antibody, human IgG4 S228P, kappa, name in Kabat numbering, V domains shown)
VH: B1 VH
VL: B1 VL with H93Y, P96H
notes: also called IPN009VH2/IPN93L0030
B4: C1_IPN009VH2-SG4GK/IPN93L0031-SK1 (antibody, human IgG4 S228P, kappa, name in Kabat numbering, V domains shown)
VH: B1 VH
VL: B1 VL with P96H
notes: also called IPN009VH2/IPN93L0031
B5: C1_IPN92H0026-SG4GK/IPN93L0021-SK1 (antibody, human IgG4 S228P, kappa, name in Kabat numbering, V domains shown)
VH: B1 VH with G66H
VL: B1 VL with H95L
notes: also called IPN92H0026/IPN93L0021
B6: C1_IPN92H0026-SG4GK/IPN93L0023-SK1 (antibody, human IgG4 S228P, kappa, name in Kabat numbering, V domains shown)
VH: B1 VH with G66H
VL: B1 VL with H93Y
notes: also called IPN92H0026/IPN93L0023
B7: C1_IPN92H0026-SG4GK/IPN93L0024-SK1 (antibody, human IgG4 S228P, kappa, name in Kabat numbering, V domains shown)
VH: B1 VH with G66H
VL: B1 VL with H93Y, H95L, P96H
notes: also called IPN92H0026/IPN93L0024
B8: C1_IPN92H0026-SG4GK/IPN93L0028-SK1 (antibody, human IgG4 S228P, kappa, name in Kabat numbering, V domains shown)
VH: B1 VH with G66H
VL: B1 VL
notes: also called IPN92H0026/IPN93L0028
B9: C1_IPN92H0026-SG4GK/IPN93L0029-SK1 (antibody, human IgG4 S228P, kappa, name in Kabat numbering, V domains shown)
VH: B1 VH with G66H
VL: B1 VL with H95L, P96H
notes: also called IPN92H0026/IPN93L0029
B10: C1_IPN92H0026-SG4GK/IPN93L0030-SK1 (antibody, human IgG4 S228P, kappa, name in Kabat numbering, V domains shown)
VH: B1 VH with G66H
VL: B1 VL with H93Y, P96H
notes: also called IPN92H0026/IPN93L0030
B11: C1_IPN92H0026-SG4GK/IPN93L0031-SK1 (antibody, human IgG4 S228P, kappa, name in Kabat numbering, V domains shown)
VH: B1 VH with G66H
VL: B1 VL with P96H
notes: also called IPN92H0026/IPN93L0031
B12: C1_IPN92H0033-SG4GK/IPN93L0021-SK1 (antibody, human IgG4 S228P, kappa, name in Kabat numbering, V domains shown)
VH: B1 VH with Y103H
VL: B1 VL with H95L
notes: also called IPN92H0033/IPN93L0021
B13: C1_IPN92H0033-SG4GK/IPN93L0023-SK1 (antibody, human IgG4 S228P, kappa, name in Kabat numbering, V domains shown)
VH: B1 VH with Y103H
VL: B1 VL with H93Y
notes: also called IPN92H0033/IPN93L0023
B14: C1_IPN92H0033-SG4GK/IPN93L0028-SK1 (antibody, human IgG4 S228P, kappa, name in Kabat numbering, V domains shown)
VH: B1 VH with Y103H
VL: B1 VL
notes: also called IPN92H0033/IPN93L0028
B15: C1_IPN92H0033-SG4GK/IPN93L0029-SK1 (antibody, human IgG4 S228P, kappa, name in Kabat numbering, V domains shown)
VH: B1 VH with Y103H
VL: B1 VL with H95L, P96H
notes: also called IPN92H0033/IPN93L0029

Tests used:
[1] = biological target: T1, human C1s (human, UniProt P09871 16-688); assay: SPR; KD pH 5.8 3 uM Ca / KD pH 7.4 1.2 mM Ca
T1 construct: also called hC1s; serum-derived human C1s (CompTech)
T1 sequence: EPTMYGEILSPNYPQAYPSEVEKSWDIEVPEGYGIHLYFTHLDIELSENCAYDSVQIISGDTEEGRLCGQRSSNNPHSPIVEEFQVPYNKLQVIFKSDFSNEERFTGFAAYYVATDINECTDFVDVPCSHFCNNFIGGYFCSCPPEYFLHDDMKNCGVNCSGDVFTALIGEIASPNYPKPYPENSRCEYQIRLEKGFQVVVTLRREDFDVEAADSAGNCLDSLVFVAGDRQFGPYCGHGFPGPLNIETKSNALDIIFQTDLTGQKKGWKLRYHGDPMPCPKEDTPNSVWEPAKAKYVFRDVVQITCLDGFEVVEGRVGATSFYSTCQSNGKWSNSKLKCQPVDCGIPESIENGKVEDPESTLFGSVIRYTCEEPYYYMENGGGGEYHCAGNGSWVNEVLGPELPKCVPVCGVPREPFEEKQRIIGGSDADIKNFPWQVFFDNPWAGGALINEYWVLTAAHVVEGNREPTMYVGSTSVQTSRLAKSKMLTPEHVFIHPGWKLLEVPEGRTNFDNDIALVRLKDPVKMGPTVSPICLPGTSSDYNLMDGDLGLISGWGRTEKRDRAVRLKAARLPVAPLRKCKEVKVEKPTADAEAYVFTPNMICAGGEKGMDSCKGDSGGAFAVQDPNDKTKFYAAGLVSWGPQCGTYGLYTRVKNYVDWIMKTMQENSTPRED
Method: (§1) All variants were transiently expressed and purified by the method described above. The binding affinity of each histidine-substituted variant at pH 7.4 and pH 5.8 was determined at 37 degrees C. using Biacore T200 instrument (GE Healthcare). Recombinant Protein A/G (Pierce) was immobilized onto all flow cells of a CM4 sensor chip using an amine coupling kit (GE Healthcare). Antibodies and analytes were prepared in 7(+) buffer (20 mM ACES, 150 mM NaCl, 1.2 mM CaCl2, 0.05% Tween 20, 0.005% NaN3, pH 7.4), 5(+) buffer (20 mM ACES, 150 mM NaCl, 1.2 mM CaCl2, 0.05% Tween 20, 0.005% NaN3, pH 5.8), or 5(−) buffer (20 mM ACES, 150 mM NaCl, 3 micro M CaCl2, 0.05% Tween 20, 0.005% NaN3, pH 5.8). Each antibody was captured onto the sensor surface by protein A/G. Antibody capture levels were aimed at 200 resonance unit (RU). Serum-derived human C1s (CompTech) or recombinant C1s prepared in EXAMPLE 1 was injected at 50 nM, followed by dissociation. The sensor surface was regenerated in each cycle with 10 mM Glycine-HCl, pH 1.5. […] The ratio of KD 5.8+ to KD 7.4+(“KD 5+/7+”) and that of KD 5.8− to KD 7.4+(“KD 5−/7+”) were calculated. When the KD 5+/7+ or KD 5−/7+ of a variant is larger than that of the parent antibody IPN009VH2-SG4GK/IPN009VK3-SK1, that variant is considered to be “pH”- or “pH and Ca”-dependent, respectively. When binding response in 5(+) buffer and/or in 5(−) buffer of a variant is much lower than that of IPN09VH2/IPN009VK3, that variant is also considered as “pH”- and/or “pH and Ca”-dependent. Therefore, such mutations are effective to generate “pH”- and/or “pH and Ca”-dependent antibody. To further enhance “pH” and/or “pH and Ca” dependency, a combination of histidine mutations was conducted. Antibodies with combinations of histidine mutations were evaluated using Biacore by the method described above.

[2] = biological target: T1, human C1s; assay: SPR; KD pH 5.8 1.2 mM Ca / KD pH 7.4 1.2 mM Ca
Method: as §1

[3] = biological target: T1, human C1s; assay: SPR, Ab captured; pH 5.8, 1.2 mM Ca
Method: as §1

[4] = biological target: T1, human C1s; assay: SPR, Ab captured; pH 7.4, 1.2 mM Ca
Method: as §1

[5] = biological target: T1, human C1s; assay: SPR, Ab captured; pH 5.8, 3 uM Ca
Method: as §1

Binder | KD 5(-)/7(+) [1] | KD 5(+)/7(+) [2] | Kd [3] [nM] | koff [3] [s⁻¹] | kon [3] [M⁻¹ s⁻¹] | Kd [4] [nM] | koff [4] [s⁻¹] | kon [4] [M⁻¹ s⁻¹] | Kd [5] [nM] | koff [5] [s⁻¹] | kon [5] [M⁻¹ s⁻¹]
B1 | 0.5 | 1 | 14.1 | 0.00751 | 534000 | 13.9 | 0.00476 | 343000 | 6.66 | 0.00351 | 528000
B2 | 0.3 | 0.9 | 15.5 | 0.00857 | 553000 | 18.2 | 0.00897 | 494000 | 5.54 | 0.00296 | 534000
B3 | 0.1 | 1.8 | 45.6 | 0.0222 | 487000 | 25.5 | 0.0156 | 612000 | 1.3 | 0.00577 | 4.42e+06
B4 | 29500 | 142 | – | 0.0127 | 532000 | – | 8e-06 | 47600 | – | 0.00352 | 711
B5 | 10.1 | 2.4 | 1.95 | 0.00149 | 763000 | 0.804 | 0.000472 | 587000 | 8.12 | 0.17 | 2.1e+07
B6 | 8.6 | 1.3 | 1.53 | 0.00124 | 813000 | 1.16 | 0.000608 | 523000 | 9.95 | 0.0619 | 6.23e+06
B7 | 13.2 | 2.8 | 3.16 | 0.00143 | 451000 | 1.14 | 0.00047 | 412000 | 15.1 | 0.112 | 7.43e+06
B8 | 5.8 | 2.2 | 10.6 | 0.0059 | 557000 | 4.76 | 0.00255 | 535000 | 27.6 | 0.176 | 6.4e+06
B9 | 0.6 | 1.1 | 10.2 | 0.00613 | 602000 | 9.03 | 0.00457 | 507000 | 5.07 | 0.00412 | 812000
B10 | 10.9 | 1.1 | 26.2 | 0.0592 | 2.26e+06 | 24.8 | 0.0103 | 414000 | 270 | 0.0012 | 4460
B11 | 0.3 | 6.3 | 4290 | 0.0178 | 4140 | 684 | 0.016 | 23300 | 215 | 0.00133 | 6170
B12 | 4 | 2.6 | 5.01 | 0.00293 | 585000 | 1.92 | 0.000672 | 350000 | 7.59 | – | –
B13 | 3.5 | 1.6 | 5.05 | 0.00282 | 559000 | 3.25 | 0.000978 | 301000 | 11.3 | – | –
B14 | 1.3 | 3.1 | 20.1 | 0.0144 | 717000 | 6.5 | 0.00218 | 335000 | 8.5 | 0.0056 | 658000
B15 | 0.6 | 1.6 | 24.6 | 0.0222 | 905000 | 15.4 | 0.0074 | 479000 | 9.79 | 0.00376 | 384000

From patent US20210032365A1 (Chugai, published 2021)
